Measurements published in patent publication US20090280480A1.

Experiments:
[1] = target: NM fibers (amyloid fibers assembled from Sup35 NM; also used sonicated as seed) (Saccharomyces cerevisiae) (UniProt P05453); test: seeded fibre elongation; sedimentation of soluble NM plus acrylodan wavelength-shift assay, Lineweaver-Burk plot (Michaelis-Menten model of soluble NM binding to seed and converting)
[2] = target: NM fibers (amyloid fibers assembled from Sup35 NM; also used sonicated as seed) (Saccharomyces cerevisiae) (UniProt P05453); test: seeded fibre elongation; sedimentation of soluble NM plus acrylodan wavelength-shift assay, Lineweaver-Burk plot

Sequence of NM fibers (amyloid fibers assembled from Sup35 NM; also used sonicated as seed) (Saccharomyces cerevisiae) (P05453 1-253): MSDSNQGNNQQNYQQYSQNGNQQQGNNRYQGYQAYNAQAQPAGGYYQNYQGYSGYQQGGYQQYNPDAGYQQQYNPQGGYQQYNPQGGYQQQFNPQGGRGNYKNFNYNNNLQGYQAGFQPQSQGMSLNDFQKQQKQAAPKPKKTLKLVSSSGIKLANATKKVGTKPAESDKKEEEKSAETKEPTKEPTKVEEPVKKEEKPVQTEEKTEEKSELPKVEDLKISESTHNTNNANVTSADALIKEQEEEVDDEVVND

NM^T158C-acrylodan (soluble) (from UniProt P05453 1-253) (other; other documents disagree on this pair)
Km [1]: 0.12 µM | kconf/Km (conformational conversion efficiency) [2]: 42000 M⁻¹ s⁻¹
